Data taken from patent US12630600B2 (MEDIMMUNE LIMITED, priority 2022, dated 2026).
Starred links: 1 amine or outer side, 2 acyl side, 3 side chain; linkers in the order of their positions; H or OH if unused. Non-standard residues stand in square brackets, D forms with d. Groups on a side chain read outwards from the residue. No end group written: not given here. *: point of attachment. C20 diacid = O=C(O)CCCCCCCCCCCCCCCCCCC(=O)*; C18 diacid = O=C(O)CCCCCCCCCCCCCCCCC(=O)*; γGlu = O=C(O)[C@H](CCC(=O)[*:2])N[*:1]; αMeF = C[C@](N)(Cc1ccccc1)C(=O)O; (PEG)2 = polyethylene glycol 2; PEG4 = NCCOCCOCCOCCOCCC(=O)O; AEEA = NCCOCCOCC(=O)O; Aib = CC(C)(N)C(=O)O

Experiments:
human GLP-1 receptor = human GLP-1 receptor (human, UniProt P43220); test: cell-based or functional assay
human glucagon receptor = human glucagon receptor (human, UniProt P47871); test: cell-based or functional assay

Binder	hGLP-1R EC50 (pM) (human GLP-1 receptor)	hGluc-R EC50 (pM) (human glucagon receptor)
H[Aib]HGS[αMeF]TSDVSK[αMeF]LDSR[Aib]AK([γGlu-C18 diacid])DFVESIANT-NH2 [Peptide 254]	102	125
H[Aib]HGS[αMeF]TSDVSK[αMeF]LDSRAAK([AEEA-γGlu-AEEA-γGlu-C18 diacid])D[αMeF]VQ[Aib]IANT-NH2 [Peptide 260]	33.1	76.9
H[Aib]HGS[αMeF]TSDVSK[αMeF]LDSRAAK([(PEG)2-(PEG)2-γGlu-γGlu-C20 diacid])D[αMeF]VQ[Aib]IANT-NH2 [Peptide 264]	69.5	297
H[Aib]HGS[αMeF]TSDVSK[αMeF]LDSRAAK([AEEA-γGlu-AEEA-γGlu-C20 diacid])D[αMeF]VQ[Aib]IANT-NH2 [Peptide 266]	66.5	293
H[Aib]HGS[αMeF]TSDVSK[αMeF]LDSRAAK([(PEG)2-(PEG)2-γGlu-γGlu-C18 diacid])D[αMeF]VQ[Aib]IANT-NH2 [Peptide 258]	34	93.1
H[Aib]HGS[αMeF]TSDVSK[αMeF]LDSRAAK([AEEA-γGlu-C18 diacid])D[αMeF]VQ[Aib]IANT-NH2 [Peptide 262]	13	11.7
H[Aib]HGS[αMeF]TSDVSK[αMeF]LDSQAAK([AEEA-AEEA-γGlu-γGlu-C20 diacid])D[αMeF]VQ[Aib]IANT-NH2 [Peptide 256]	346	1310
H[Aib]HGS[αMeF]TSDVSK[αMeF]LDSRAAK([AEEA-γGlu-AEEA-C18 diacid])D[αMeF]VQ[Aib]IANT-NH2 [Peptide 259]	19.1	34.8
H[Aib]HGS[αMeF]TSDVSK[αMeF]LDSRAAK([AEEA-γGlu-AEEA-C20 diacid])D[αMeF]VQ[Aib]IANT-NH2 [Peptide 265]	71.2	131
H[Aib]HGS[αMeF]TSDVSK[αMeF]LDSRAAK([PEG4-γGlu-C18 diacid])D[αMeF]VQ[Aib]IANT-NH2 (N-terminus assumed; SMILES CC[C@H](C)[C@H](NC(=O)C(C)(C)NC(=O)[C@H](CCC(N)=O)NC(=O)[C@@H](NC(=O)[C@](C)(Cc1ccccc1)NC(=O)[C@H](CC(=O)O)NC(=O)[C@H](CCCCNC(=O)CCOCCOCCOCCOCCNC(=O)CC[C@H](NC(=O)CCCCCCCCCCCCCCCCC(=O)O)C(=O)O)NC(=O)[C@H](C)NC(=O)[C@H](C)NC(=O)[C@H](CCCNC(=N)N)NC(=O)[C@H](CO)NC(=O)[C@H](CC(=O)O)NC(=O)[C@H](CC(C)C)NC(=O)[C@](C)(Cc1ccccc1)NC(=O)[C@H](CCCCN)NC(=O)[C@H](CO)NC(=O)[C@@H](NC(=O)[C@H](CC(=O)O)NC(=O)[C@H](CO)NC(=O)[C@@H](NC(=O)[C@](C)(Cc1ccccc1)NC(=O)[C@H](CO)NC(=O)CNC(=O)[C@H](Cc1c[nH]cn1)NC(=O)C(C)(C)NC(=O)[C@@H](N)Cc1c[nH]cn1)[C@@H](C)O)C(C)C)C(C)C)C(=O)N[C@@H](C)C(=O)N[C@@H](CC(N)=O)C(=O)N[C@H](C(N)=O)[C@@H](C)O) [Peptide 261]	16.2	29.4
H[Aib]HGS[αMeF]TSDVSK[αMeF]LDSR[Aib]AK([AEEA-AEEA-γGlu-C18 diacid])DFVESIANT-NH2 [Peptide 251]	79.8	248
H[Aib]HGS[αMeF]TSDVSK[αMeF]LDSRAAK([AEEA-AEEA-γGlu-γGlu-C20 diacid])D[αMeF]VESIANT-NH2 (N-terminus assumed; SMILES CC[C@H](C)[C@H](NC(=O)[C@H](CO)NC(=O)[C@H](CCC(=O)O)NC(=O)[C@@H](NC(=O)[C@](C)(Cc1ccccc1)NC(=O)[C@H](CC(=O)O)NC(=O)[C@H](CCCCNC(=O)COCCOCCNC(=O)COCCOCCNC(=O)CC[C@H](NC(=O)CC[C@H](NC(=O)CCCCCCCCCCCCCCCCCCC(=O)O)C(=O)O)C(=O)O)NC(=O)[C@H](C)NC(=O)[C@H](C)NC(=O)[C@H](CCCNC(=N)N)NC(=O)[C@H](CO)NC(=O)[C@H](CC(=O)O)NC(=O)[C@H](CC(C)C)NC(=O)[C@](C)(Cc1ccccc1)NC(=O)[C@H](CCCCN)NC(=O)[C@H](CO)NC(=O)[C@@H](NC(=O)[C@H](CC(=O)O)NC(=O)[C@H](CO)NC(=O)[C@@H](NC(=O)[C@](C)(Cc1ccccc1)NC(=O)[C@H](CO)NC(=O)CNC(=O)[C@H](Cc1c[nH]cn1)NC(=O)C(C)(C)NC(=O)[C@@H](N)Cc1c[nH]cn1)[C@@H](C)O)C(C)C)C(C)C)C(=O)N[C@@H](C)C(=O)N[C@@H](CC(N)=O)C(=O)N[C@H](C(N)=O)[C@@H](C)O) [Peptide 246]	320	557
H[Aib]HGS[αMeF]TSDVSK[αMeF]LDSRAAK([PEG4-γGlu-γGlu-C18 diacid])D[αMeF]VQ[Aib]IANT-NH2 [Peptide 263]	25.4	64.6
H[Aib]HGS[αMeF]TSDVSK[αMeF]LDSRAAK([PEG4-γGlu-C20 diacid])D[αMeF]VQ[Aib]IANT-NH2 [Peptide 267]	65.6	128
H[Aib]HGS[αMeF]TSDVSK[αMeF]LDSR[Aib]AK([AEEA-γGlu-C18 diacid])DFVESIANT-NH2 [Peptide 253]	75.5	53.1
